In patent US20240190992A1 (UNIVERSITY PUBLIC CORPORATION OSAKA, published 2024):

Assays:
mouse EpCAM = target: T1, mouse EpCAM (mouse, UniProt Q99JW5 24-315); test: living cell immunostaining of KMC07 co-cultured with mouse PA6 cells
T1 construct: whole, on cells; also called EpCAM on the mouse fibroblast cell line PA6
T1 sequence (looked up): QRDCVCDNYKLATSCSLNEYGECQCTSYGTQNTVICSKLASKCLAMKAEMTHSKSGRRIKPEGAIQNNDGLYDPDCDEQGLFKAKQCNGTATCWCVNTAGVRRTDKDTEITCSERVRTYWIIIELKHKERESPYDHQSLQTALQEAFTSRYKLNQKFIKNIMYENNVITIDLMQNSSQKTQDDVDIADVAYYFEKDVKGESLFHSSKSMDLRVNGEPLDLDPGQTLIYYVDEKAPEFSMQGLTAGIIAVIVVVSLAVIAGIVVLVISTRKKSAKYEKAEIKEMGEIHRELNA
Text: Since it was considered that EpCAM was so specially modified with KMC07 that its expression pattern was changed, expression of EpCAM was confirmed using alive or fixed Triton X-100-treated KMC07 by immunostaining. At this time, the anti-KMC07 antibody 1F9D4 and a commercially available EpCAM antibody were used as primary antibodies. When KMC07 was immunostained as living cells, signals were obtained on the cell membrane of KMC07 and the cell membrane of PA6 with the anti-EpCAM antibody (indicated by the arrow in FIG. 12). The staining pattern of KMC07 was similar to that with 1F9D4. Since the anti-EpCAM antibody is known to cross human, mouse and rat EpCAMs, it is considered that the anti-EpCAM antibody also reacted to the mouse fibroblast cell line PA6.

[1] = target: T2, EpCAM (epithelial cell adhesion molecule) (human, UniProt P16422 24-314); test: antibody affinity column on KMC07 whole cell extract, silver staining, mass analysis of the eluted band
T2 construct: whole, on cells; also called human EpCAM
T2 sequence (looked up): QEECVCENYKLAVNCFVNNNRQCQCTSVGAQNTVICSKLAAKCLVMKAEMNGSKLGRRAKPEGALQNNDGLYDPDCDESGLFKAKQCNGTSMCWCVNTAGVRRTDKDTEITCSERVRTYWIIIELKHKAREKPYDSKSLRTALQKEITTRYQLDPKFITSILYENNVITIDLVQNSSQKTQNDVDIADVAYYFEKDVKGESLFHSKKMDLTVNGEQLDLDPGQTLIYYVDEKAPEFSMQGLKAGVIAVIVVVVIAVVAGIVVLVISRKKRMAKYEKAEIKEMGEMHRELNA
Text: To an affinity column, 5 clones of the anti-KMC07 antibody were bound and the KMC07 whole cell extract was flown to react the antibody with the antigen. Thereafter, the antibody was eluted and evaluated by silver staining. […] Among them, the broad band of 75 to 100 kDa (mark 4 in the figure) detected with 1B4G4 was similar to that in FIG. 10, and thus considered to be promising as a candidate antigen.

B1: 1F9D4 (antibody III) (antibody, IgG2b, V domains shown)
VH: EVQLVESGGGLVQPGRSLKLSCAASGFTFSDYNMAWVRQAPKKGLEWVATINYDGISTYYRDSVKGRFTISRDNAKSTLYLQMDSLRSEDTATYYCARHSYVYYALGVPFAYWGQGTLVTVSS
VL: DIQMTQSPSLLSASVGDRVTINCKASQNINKYLNWYQQKLGEAPKLLIYNTNSLQTGIPSRFSGSGSGTDYTLTISSLQPEDFGTYFCFQHNSWPLTFGSGTKLEIK
notes: also called IF9D4; anti-KMC07 antibody 1F9D4
binding result (mouse EpCAM): no binding | binding result [1]: binds
